According to paper PMC11497405:
One block for each substance: values may come before it.

Assays:
Test in all cases: SEC; size exclusion chromatography coupled online to ICP-sfMS (HPLC-ICP-MS) with diode array detection, metal-free HPLC system; apparent MW from a calibration curve; purified MTs with their bound metals
[1] = molecular target: native (non-tagged) Brassica napus metallothionein BnMT2 (Brassica napus)
[2] = molecular target: native (non-tagged) Brassica napus metallothionein BnMT3a (Brassica napus)
[3] = molecular target: native (non-tagged) Brassica napus metallothionein BnMT3b (Brassica napus)

stoichiometry N [1]: 2
Substance: native (non-tagged) Brassica napus metallothionein BnMT2 (natural protein)

stoichiometry N [2]: 2
Substance: native (non-tagged) Brassica napus metallothionein BnMT3a (natural protein)

stoichiometry N [3]: 2
Substance: native (non-tagged) Brassica napus metallothionein BnMT3b (natural protein)
